“And” between values parts separate entries of the source, which are not always exact repeats. Equal entries are not always repeated.
Legend:
Assay in all cases: cryo-EM structure
[1] = target: CUS-3 coat protein (CP, major capsid protein; gp5 by the name of the P22 homologue) (bacteriophage CUS-3)
[2] = target: CUS-3 portal protein (gp1 by the name of the P22 homologue) (bacteriophage CUS-3)
[3] = target: CUS-3 tail needle protein (gp26 by the name of the P22 homologue) (bacteriophage CUS-3)
[4] = target: CUS-3 tailspike protein (gp9 by the name of the P22 homologue) (bacteriophage CUS-3)

Question: “CUS-3 coat protein (CP, major capsid protein; gp5 by the name of the P22 homologue) (natural protein)” was tested. Which stoichiometry N [1] did it give?
Answer: The stoichiometry N was 5 and 6.

Question: “CUS-3 portal protein (gp1 by the name of the P22 homologue) (natural protein)” was tested. Which stoichiometry N [2] did it give?
Answer: Its stoichiometry N is 12.

Question: How did the stoichiometry N [3] turn out when “CUS-3 tail needle protein (gp26 by the name of the P22 homologue) (natural protein)” was run?
Answer: Its stoichiometry N is 3.

Question: “CUS-3 tailspike protein (gp9 by the name of the P22 homologue) (natural protein)” was tested. Which stoichiometry N [4] did it give?
Answer: The stoichiometry N was 3.

From publication PMC4157081
